We go through 125 sequences from the supplement of paper PMC9112550, “Optimization of the antimicrobial peptide Bac7 by deep mutational scanning” (BMC Biology, 2022).
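Note: peptides expressed intracellularly from a pBAD plasmid library in pooled LB shake-flask culture, induced with 0.3% L-arabinose, DNA abundance read by NGS, three biological replicates, DESeq2 with apeglm shrinkage.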

For this data set, the system named is Escherichia coli TOP10. Nature of the data set: shrunken log2 fold change of peptide-encoding DNA abundance (4.5 h post-induction vs induction); higher = less antimicrobial activity (less host growth inhibition). As to conditions: time post-induction: 4.5 h; library: site-saturation at positions 5, 18, 19, 20.
With RRIRTRPPRLPRPRPRPQSAPRP, the “shrunken log2 fold change” value was -0.0745.

As for RRIRKRPPRLPRPRPRPTPFPRP, the “shrunken log2 fold change” value was 0.113.

In the case of RRIRKRPPRLPRPRPRPMSDPRP, the “shrunken log2 fold change” value came out at 0.364.

On to RRIRLRPPRLPRPRPRPQNVPRP, for which the “shrunken log2 fold change” value was -0.523.

RRIRVRPPRLPRPRPRPPMVPRP: the “shrunken log2 fold change” value is 0.0314.

Regarding RRIRGRPPRLPRPRPRPRAGPRP, the “shrunken log2 fold change” value turned out to be 1.36.

In the case of RRIRHRPPRLPRPRPRPLHQPRP, the “shrunken log2 fold change” value is -0.00684.

With RRIRYRPPRLPRPRPRPLPYPRP, the “shrunken log2 fold change” value was -0.156.

For RRIRWRPPRLPRPRPRPMFEPRP, the “shrunken log2 fold change” value is -0.0796.

Consider RRIRPRPPRLPRPRPRPDFRPRP, for which the “shrunken log2 fold change” value is -0.184.

Regarding RRIRARPPRLPRPRPRPKTPPRP, the “shrunken log2 fold change” value is 0.903.

As for RRIRLRPPRLPRPRPRPEGGPRP, the “shrunken log2 fold change” value came out at 0.0449.

For the sequence RRIRSRPPRLPRPRPRPWGMPRP, the “shrunken log2 fold change” value was -0.0848.

On to RRIRARPPRLPRPRPRPCGHPRP, for which the “shrunken log2 fold change” value worked out at 0.0628.

For the sequence RRIRFRPPRLPRPRPRPLNKPRP, the “shrunken log2 fold change” value is -0.522.

As for RRIRRRPPRLPRPRPRPFWEPRP, the “shrunken log2 fold change” value is -0.0438.

Consider RRIRERPPRLPRPRPRPMWYPRP, for which the “shrunken log2 fold change” value was -0.379.

In the case of RRIRYRPPRLPRPRPRPGNHPRP, the “shrunken log2 fold change” value is -0.064.

With RRIRPRPPRLPRPRPRPMILPRP, the “shrunken log2 fold change” value was -0.064.

RRIRERPPRLPRPRPRPVKKPRP: the “shrunken log2 fold change” value is -0.179.

Turning to RRIRIRPPRLPRPRPRPYNQPRP, the “shrunken log2 fold change” value is -1.01.

Turning to RRIRTRPPRLPRPRPRPIREPRP, the “shrunken log2 fold change” value was -0.0125.

In the case of RRIRSRPPRLPRPRPRPAHEPRP, the “shrunken log2 fold change” value is -0.074.

Take RRIRVRPPRLPRPRPRPCMRPRP: the “shrunken log2 fold change” value was found to be 0.108.

RRIRDRPPRLPRPRPRPFGPPRP: the “shrunken log2 fold change” value was -0.0754.

Consider RRIRCRPPRLPRPRPRPQCEPRP, for which the “shrunken log2 fold change” value was -0.128.

With RRIRARPPRLPRPRPRPDWRPRP, the “shrunken log2 fold change” value amounted to 0.146.

As for RRIRFRPPRLPRPRPRPIYRPRP, the “shrunken log2 fold change” value was -0.122.

With RRIRDRPPRLPRPRPRPRYCPRP, the “shrunken log2 fold change” value is -0.351.

Take RRIRDRPPRLPRPRPRPSMDPRP: the “shrunken log2 fold change” value is -0.0183.

Regarding RRIRTRPPRLPRPRPRPYWTPRP, the “shrunken log2 fold change” value was found to be 0.0389.

Turning to RRIRNRPPRLPRPRPRPRMHPRP, the “shrunken log2 fold change” value is 0.217.

For RRIRVRPPRLPRPRPRPPQPPRP, the “shrunken log2 fold change” value was 1.38.

Consider RRIRDRPPRLPRPRPRPMTRPRP, for which the “shrunken log2 fold change” value was -0.113.

With RRIRYRPPRLPRPRPRPNIDPRP, the “shrunken log2 fold change” value was -1.61.

As to RRIRMRPPRLPRPRPRPTMNPRP, the “shrunken log2 fold change” value was found to be 0.0381.

In the case of RRIRIRPPRLPRPRPRPYDRPRP, the “shrunken log2 fold change” value is -0.499.

In the case of RRIRARPPRLPRPRPRPNRAPRP, the “shrunken log2 fold change” value is -0.0385.

Take RRIRQRPPRLPRPRPRPDIQPRP: the “shrunken log2 fold change” value was 0.00127.

Turning to RRIRHRPPRLPRPRPRPYWAPRP, the “shrunken log2 fold change” value is -0.186.

Take RRIRERPPRLPRPRPRPFGMPRP: the “shrunken log2 fold change” value is -0.0947.

Regarding RRIRKRPPRLPRPRPRPPALPRP, the “shrunken log2 fold change” value was 0.57.

As to RRIRPRPPRLPRPRPRPIWWPRP, the “shrunken log2 fold change” value was determined as 0.665.

As for RRIRPRPPRLPRPRPRPLRHPRP, the “shrunken log2 fold change” value came to 0.21.

As to RRIRQRPPRLPRPRPRPGCCPRP, the “shrunken log2 fold change” value came out at 0.202.

For the sequence RRIRGRPPRLPRPRPRPMKAPRP, the “shrunken log2 fold change” value is 0.231.

For RRIRERPPRLPRPRPRPAGYPRP, the “shrunken log2 fold change” value is 0.0991.

Turning to RRIRSRPPRLPRPRPRPCCLPRP, the “shrunken log2 fold change” value was -0.125.

Consider RRIRVRPPRLPRPRPRPREDPRP, for which the “shrunken log2 fold change” value is 0.489.

Take RRIRNRPPRLPRPRPRPHPKPRP: the “shrunken log2 fold change” value worked out at 0.187.

For RRIRLRPPRLPRPRPRPEYIPRP, the “shrunken log2 fold change” value is -0.312.

In the case of RRIRYRPPRLPRPRPRPDLLPRP, the “shrunken log2 fold change” value was -0.0601.

For the sequence RRIRWRPPRLPRPRPRPSAKPRP, the “shrunken log2 fold change” value worked out at 0.833.

Turning to RRIRSRPPRLPRPRPRPGQQPRP, the “shrunken log2 fold change” value is 0.0543.

Regarding RRIRIRPPRLPRPRPRPPGWPRP, the “shrunken log2 fold change” value was found to be 0.527.

Consider RRIRLRPPRLPRPRPRPLYVPRP, for which the “shrunken log2 fold change” value is -0.897.

For RRIRKRPPRLPRPRPRPLWKPRP, the “shrunken log2 fold change” value is -0.206.

Consider RRIRERPPRLPRPRPRPLSHPRP, for which the “shrunken log2 fold change” value is -0.314.

For the sequence RRIRRRPPRLPRPRPRPEDCPRP, the “shrunken log2 fold change” value was -0.0482.

With RRIRERPPRLPRPRPRPRLMPRP, the “shrunken log2 fold change” value was -0.103.

Take RRIRWRPPRLPRPRPRPRLRPRP: the “shrunken log2 fold change” value came to 0.461.

For the sequence RRIRERPPRLPRPRPRPRQPPRP, the “shrunken log2 fold change” value worked out at 0.273.

With RRIRFRPPRLPRPRPRPFKQPRP, the “shrunken log2 fold change” value is -0.242.

RRIRIRPPRLPRPRPRPFPHPRP: the “shrunken log2 fold change” value is -0.174.

In the case of RRIRSRPPRLPRPRPRPKTSPRP, the “shrunken log2 fold change” value stood at 0.187.

Take RRIRIRPPRLPRPRPRPSWPPRP: the “shrunken log2 fold change” value is -0.227.

As for RRIRWRPPRLPRPRPRPPEDPRP, the “shrunken log2 fold change” value worked out at 0.235.

RRIRNRPPRLPRPRPRPVRRPRP: the “shrunken log2 fold change” value turned out to be 0.112.

As for RRIRVRPPRLPRPRPRPFEDPRP, the “shrunken log2 fold change” value was -0.151.

RRIRNRPPRLPRPRPRPGYCPRP: the “shrunken log2 fold change” value is -0.369.

On to RRIRKRPPRLPRPRPRPWSGPRP, for which the “shrunken log2 fold change” value came to 0.104.

On to RRIRARPPRLPRPRPRPIYYPRP, for which the “shrunken log2 fold change” value was -0.182.

Regarding RRIRWRPPRLPRPRPRPMLKPRP, the “shrunken log2 fold change” value was -0.109.

RRIRIRPPRLPRPRPRPRTQPRP: the “shrunken log2 fold change” value is 0.106.

With RRIRCRPPRLPRPRPRPIPAPRP, the “shrunken log2 fold change” value came to 0.0747.

Turning to RRIRNRPPRLPRPRPRPHCHPRP, the “shrunken log2 fold change” value was -0.398.

Consider RRIRFRPPRLPRPRPRPWIGPRP, for which the “shrunken log2 fold change” value was -0.398.

As for RRIRPRPPRLPRPRPRPHLIPRP, the “shrunken log2 fold change” value is -0.287.

In the case of RRIRHRPPRLPRPRPRPAMYPRP, the “shrunken log2 fold change” value was -0.0134.

In the case of RRIRWRPPRLPRPRPRPTPKPRP, the “shrunken log2 fold change” value stood at 0.627.

For the sequence RRIRDRPPRLPRPRPRPCYKPRP, the “shrunken log2 fold change” value is 0.0316.

RRIRPRPPRLPRPRPRPGAVPRP: the “shrunken log2 fold change” value was 0.379.

On to RRIRNRPPRLPRPRPRPWFAPRP, for which the “shrunken log2 fold change” value was determined as 0.801.

For RRIRTRPPRLPRPRPRPFLYPRP, the “shrunken log2 fold change” value was -0.786.

For RRIRVRPPRLPRPRPRPHKPPRP, the “shrunken log2 fold change” value was -0.0132.

In the case of RRIRLRPPRLPRPRPRPHVLPRP, the “shrunken log2 fold change” value is -0.0737.

Take RRIRMRPPRLPRPRPRPQTGPRP: the “shrunken log2 fold change” value is -0.0549.

Take RRIRDRPPRLPRPRPRPWRNPRP: the “shrunken log2 fold change” value is -0.0018.

On to RRIRTRPPRLPRPRPRPWRIPRP, for which the “shrunken log2 fold change” value stood at 0.025.

On to RRIRMRPPRLPRPRPRPAPRPRP, for which the “shrunken log2 fold change” value was 1.72.

Take RRIRIRPPRLPRPRPRPMVSPRP: the “shrunken log2 fold change” value was -0.044.

Consider RRIRKRPPRLPRPRPRPIKWPRP, for which the “shrunken log2 fold change” value was found to be 0.00487.

In the case of RRIRGRPPRLPRPRPRPNSYPRP, the “shrunken log2 fold change” value is -0.0855.

As to RRIRGRPPRLPRPRPRPFAQPRP, the “shrunken log2 fold change” value turned out to be 0.456.

In the case of RRIRLRPPRLPRPRPRPWWGPRP, the “shrunken log2 fold change” value was -0.063.

With RRIRMRPPRLPRPRPRPETEPRP, the “shrunken log2 fold change” value came to 3.69.

For the sequence RRIRGRPPRLPRPRPRPTQSPRP, the “shrunken log2 fold change” value came out at 1.08.

As for RRIRARPPRLPRPRPRPDGMPRP, the “shrunken log2 fold change” value was -0.141.

In the case of RRIRCRPPRLPRPRPRPFMGPRP, the “shrunken log2 fold change” value is -0.585.

Regarding RRIRIRPPRLPRPRPRPLRMPRP, the “shrunken log2 fold change” value is -0.04.

Regarding RRIRWRPPRLPRPRPRPWFNPRP, the “shrunken log2 fold change” value is -0.248.

On to RRIRYRPPRLPRPRPRPPHGPRP, for which the “shrunken log2 fold change” value is -0.0619.

For the sequence RRIRCRPPRLPRPRPRPFLHPRP, the “shrunken log2 fold change” value is -0.703.

RRIRMRPPRLPRPRPRPWAHPRP: the “shrunken log2 fold change” value was -0.091.

Regarding RRIRHRPPRLPRPRPRPCPMPRP, the “shrunken log2 fold change” value is -0.0207.

Turning to RRIRLRPPRLPRPRPRPLAVPRP, the “shrunken log2 fold change” value came to 0.139.

Regarding RRIRFRPPRLPRPRPRPIIGPRP, the “shrunken log2 fold change” value was -0.024.

Turning to RRIRARPPRLPRPRPRPAPFPRP, the “shrunken log2 fold change” value was found to be 0.392.

Turning to RRIRTRPPRLPRPRPRPLKIPRP, the “shrunken log2 fold change” value is 0.0669.

For the sequence RRIRWRPPRLPRPRPRPDQRPRP, the “shrunken log2 fold change” value stood at 0.098.

With RRIRDRPPRLPRPRPRPKMNPRP, the “shrunken log2 fold change” value was -0.366.

With RRIRRRPPRLPRPRPRPDHAPRP, the “shrunken log2 fold change” value was 0.0467.

As for RRIRERPPRLPRPRPRPLYTPRP, the “shrunken log2 fold change” value is -0.41.

Take RRIRLRPPRLPRPRPRPLARPRP: the “shrunken log2 fold change” value came out at 0.615.

For RRIRARPPRLPRPRPRPFYQPRP, the “shrunken log2 fold change” value was -0.00727.

For RRIRDRPPRLPRPRPRPWVFPRP, the “shrunken log2 fold change” value was 0.289.

RRIRCRPPRLPRPRPRPLYHPRP: the “shrunken log2 fold change” value is -0.695.

As for RRIRNRPPRLPRPRPRPWGLPRP, the “shrunken log2 fold change” value is -0.123.

As for RRIRQRPPRLPRPRPRPWLVPRP, the “shrunken log2 fold change” value is -0.0624.

With RRIRKRPPRLPRPRPRPKNHPRP, the “shrunken log2 fold change” value came to 0.109.

For RRIRQRPPRLPRPRPRPTGEPRP, the “shrunken log2 fold change” value was determined as 0.0647.

RRIRRRPPRLPRPRPRPAGCPRP: the “shrunken log2 fold change” value came to 0.437.

Regarding RRIRTRPPRLPRPRPRPESLPRP, the “shrunken log2 fold change” value is -0.00987.

Consider RRIRLRPPRLPRPRPRPDKGPRP, for which the “shrunken log2 fold change” value was -0.162.

For RRIRDRPPRLPRPRPRPTLLPRP, the “shrunken log2 fold change” value amounted to 0.758.
